Experimental data reported in patent publication EP0980426B1 (Genentech, Inc., dated 2004).
Blank lines part the entries; values can stand above or below the binder they belong to.

Biological target: T1, PSTPIP, full-length, with a C-terminal FLAG epitope (murine, UniProt P97814 1-415)
T1 construct: In vitro transcribed/translated or expressed in COS cells from pRK.PIP.FLAG.C
T1 sequence: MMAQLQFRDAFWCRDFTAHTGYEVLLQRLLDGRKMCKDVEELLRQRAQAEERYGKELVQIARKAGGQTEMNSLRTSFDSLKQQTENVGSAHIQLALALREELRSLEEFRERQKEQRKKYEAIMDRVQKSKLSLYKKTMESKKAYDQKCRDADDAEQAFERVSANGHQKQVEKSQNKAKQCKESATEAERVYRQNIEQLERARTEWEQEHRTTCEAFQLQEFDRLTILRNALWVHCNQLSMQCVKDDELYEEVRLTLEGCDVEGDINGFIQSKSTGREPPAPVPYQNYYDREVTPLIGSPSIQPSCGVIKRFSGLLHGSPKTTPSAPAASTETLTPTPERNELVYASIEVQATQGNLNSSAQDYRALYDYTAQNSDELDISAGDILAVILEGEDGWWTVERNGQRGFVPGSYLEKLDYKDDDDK
Experiment: peptide competition of GST-PST-rich+CTH PTP HSCF pull-down of in vitro translated PSTPIP

lowest concentration that blocks the interaction: ~800 nM
B1: PXXP-HSCF peptide, 432GFNLRIGRPKGPRDPPAEWT451 (PTP HSCF) (peptide)
peptide: GFNLRIGRPKGPRDPPAEWT
notes: Synthetic peptide; also called C-terminally derived PTP HSCF peptide; peptide derived from the C-terminus of PTP HSCF

lowest concentration that blocks the interaction: ~800 nM
Binder: GFGNRCGKPKGPRDPPSEWT (Synthetic peptide) [PXXP-PEST peptide, 761GFGNRCGKPKGPRDPPSEWT780 (PTP PEST)]

lowest concentration that blocks the interaction: ~800 nM
Binder: GFGNRFSKPKGPRNPPSAW (Synthetic peptide) [PXXP-PEP peptide, 782GFGNRFSKPKGPRNPPSAW800 (PTP PEP)]
